Assay results from the supplement of paper PMC11780869.

Test system: Bacillus subtilis
Test: cleaved RNA product abundance (RNA/gDNA barcode ratio) relative to median wild-type variant (ratio to wild type); higher = more accumulation of the downstream cleavage product
Summary of the method: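 B. subtilis strains with chromosomally integrated reporter mRNAs (truncated aprE or tetM) holding barcoded, mutagenized RNase Y cleavage-site windows grew in LB at 37°C from OD600 0.0003 to 0.3. Cleaved product abundance is each construct's RNA:gDNA barcode ratio, scaled to the median construct with the unmutated site. It came from sequencing barcodes of gel-selected, reverse-transcribed cleaved RNA and of genomic DNA.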

[1] = experiment (reporter, strain, medium): exp 2b: truncated aprE reporter, strain BJT200, cleavage site: cggR-gapA (positions -7 to +36 mutated)
[2] = experiment (reporter, strain, medium): exp 4a: truncated aprE reporter, strain BJT201 with 2% xylose (RNase J1 expressed), cleavage site: cggR-gapA (positions -7 to +36 mutated)
[3] = experiment (reporter, strain, medium): exp 6: tetM reporter, strain 168, cleavage site: cggR-gapA (positions -7 to +36 mutated)
[4] = experiment (reporter, strain, medium): exp 8a: truncated aprE reporter, strain BJT201 with 2% xylose (RNase J1 expressed), cleavage site: glnRA (positions -5 to +31 mutated)

Row | Sequence | cleaved RNA product abundance [2] | cleaved RNA product abundance [4] | other results
1 | ACAGACGAAGGAGCCGCAAAGAAGTTATTAAGGGATAAATAATCCCTCAAGATAAATATCTCTCACTTATTTAAA | 0.29 | – | cleaved RNA product abundance [1]: 0.18
2 | ACAGACGAAGGAGCCGCAAAGAACTTATTAAGGGATGAATAATCCCTCTATATAAATATCTCTCACTTATTTAAA | 0.332 | – | –
3 | ACAGACGAAGGAGCCGCAAAGAAGTTATTAAGGGATGAATAATCCCTCAATATAATGATCTCTCACTTATTTAAA | 0.348 | – | –
4 | ACAGACGAAGGAGCCGCAAAGAAGTTATTAAGGGATGAATAATCCCACTATATAAATATCTCTCACTTATTTAAA | 0.282 | – | –
5 | ACAGACGAAGGAGCCGCAATGAAGTTATTAAGGGATGAATAATCCCACAATATAAATATCTCTCACTTATTTAAA | 0.367 | – | –
6 | ACAGACGAAGGAGCCGCAATGAAGTTATTAAGGGATTAATAATCCCTCAATATAAATATCTCTCACTTATTTAAA | 1.06 | – | cleaved RNA product abundance [1]: 0.989
7 | ACAGACGAAGGAGCCGCAAAGAAGTTATTAAGGGCTGAATAACCCCTCAATATAAATATCTCTCACTTATTTAAA | 0.424 | – | –
8 | ACAGACGAAGGAGCCGCAAAGAAGTTATAAAGGGATGAATAATCCCTCAATATAAATATCTCTCACTTATTTAAA | 0.454 | – | cleaved RNA product abundance [1]: 0.363; cleaved RNA product abundance [3]: 0.4
9 | CGACATGTCCCGCTTCTTTCATTAATCCGTTAACAACTGTTTTGCTATAAACATTTACCTTTTAAGAGGAGGAAT | – | 0.207 | –
10 | CGACATGTCCCGCTTCTTTCATTAATCCGTTTGCAACTGTTTTGCTATCTACATTTACCTTTTAAGAGGAGGAAT | – | 0.203 | –
11 | ACAGACGAAGGAGCCGCAATGAAGTTATTAAGGGATGAATAAACCCTCAATATAAATATCTCTCACTTATTTAAA | 0.454 | – | cleaved RNA product abundance [1]: 0.647
12 | ACAGACGAAGGAGCCGCAAAGAAGTTATAAAGGGATGAATAATCCCTAAATATAAATATCTCTCACTTATTTAAA | 0.626 | – | –
13 | ACAGACGAAGGAGCCGCAAAGAAGCTATTAAGTGATGAATAATCCCTCAATATAAATATCTCTCACTTATTTAAA | 0.113 | – | –
14 | CGACATGTCCCGCTTCTTTCATTAATCCGTTAGCAACTGTTTTGCTATTTACATGTACCTTTTAAGAGGAGGAAT | – | 0.0435 | –
15 | ACAGACGAAGGAGCCGCAAAGAAGTTATTAATGGATGAATGATCCCTCAATATAAATATCTCTCACTTATTTAAA | 0.113 | – | –
16 | ACAGACGAAGGAGCCGCAAAGAAGTTATTTAGGGTTGAATAATCCCTCAATATAAATATCTCTCACTTATTTAAA | 0.344 | – | cleaved RNA product abundance [1]: 0.225
17 | ACAGACGAAGGAGCCGCAAAGAAGTTATTAAGAGATGAATAATACCTCAATATAAATATCTCTCACTTATTTAAA | 0.109 | – | cleaved RNA product abundance [1]: 0.106
18 | ACAGACGAAGGAGCCGCAAAGAACTTATTAAGGGATGACTAATCCCTCAATATAAATATCTCTCACTTATTTAAA | 0.382 | – | –
19 | CGACATGTCCCGCTTCTTTCATTACTTCGTTAGCAACTGTTTTGCTATATACATTTACCTTTTAAGAGGAGGAAT | – | 1.57 | –
20 | CGACATGTCCCGCTTCTTTCATTAATCCATTAGCAAATGTTTTGCTATATACATTTACCTTTTAAGAGGAGGAAT | – | 1.18 | –
21 | CGACATGTCCCGCTTCTTTCATTAATCGGTTAGCAACTGTTTTGCTATATACATTTACCTTTTAAGAGGAGGAAT | – | 0.613 | –
22 | CGACATGTCCCGCTTCTTTCATTAATCCGTTAGCAATTGTTTTGCTTTATACATTTACCTTTTAAGAGGAGGAAT | – | 0.361 | –
23 | CGACATGTCCCGCTTCTTTCATTAATCCGTTAGCAACTGTTATGCTATATACATTTACTTTTTAAGAGGAGGAAT | – | 1.33 | –
24 | CGACATGTCCCGCTTCTTTCATTAATCCGTTAGCAACTGTTTTGCTATATATAATTACCTTTTAAGAGGAGGAAT | – | 0.919 | –
25 | ACAGACGAAGGAGCCGCAAAGAAGTTATTAAGGGATGCATAATCCCTCAATATAAATATCTCTCACTTATTTAAA | 0.844 | – | cleaved RNA product abundance [1]: 0.856; cleaved RNA product abundance [3]: 1.15
